Measured values reported in PMC8187361, “Nanoscale architecture of a VAP-A-OSBP tethering complex at membrane contact sites” (Nature Communications, 2021).
One block for each molecule: values may come before it.

B2: N-PH-FFAT (domain or fragment, UniProt P22059 1-408, looked up)
chain: MAATELRGVVGPGPAAIAALGGGGAGPPVVGGGGGRGDAGPGSGAASGTVVAAAAGGPGPGAGGVAAAGPAPAPPTGGSGGSGAGGSGSAREGWLFKWTNYIKGYQRRWFVLSNGLLSYYRSKAEMRHTCRGTINLATANITVEDSCNFIISNGGAQTYHLKASSEVERQRWVTALELAKAKAVKMLAESDESGDEESVSQTDKTELQNTLRTLSSKVEDLSTCNDLIAKHGTALQRSLSELESLKLPAESNEKIKQVNERATLFRITSNAMINACRDFLMLAQTHSKKWQKSLQYERDQRIRLEETLEQLAKQHNHLERAFRGATVLPANTPGNVGSGKDQCCSGKGDMSDEDDENEFFDAPEIITMPENLGHKRTGSNISGASSDISLDEQYKHQLEETKKEKRTR
notes: OSBP residues 1-408 (N-terminal region, PH domain, central core, FFAT motif), lacking the ORD; also called 1-408-OSBP; NH-FFAT

Tests used:
OSBP FFAT (Homo sapiens) = OSBP FFAT (Homo sapiens) (UniProt P22059); conditions: cited from earlier work
[1] = molecular target: the molecule itself; experiment: SDS-PAGE without heating; purified VAP-A in DDM, with reducing agents; bands at ~55 kDa and ~25 kDa, a single band when the samples were heated
N-PH-FFAT = molecular target: B2; experiment: membrane tethering seen by cryo-EM and cryo-ET; N-PH-FFAT or OSBP bound to GalCer/PI4P tubes (70 lipids/protein mol/mol), VAP-A proteoliposomes added (2 min incubation, or sequentially on the grid for 30 s), HK buffer, room temperature; conditions: both partners purified
[2] = molecular target: the molecule itself; experiment: cryo-EM structure; cryo-ET with sub-tomogram averaging of contact sites between VAP-A vesicles (LPR 70 mol/mol) and N-PH-FFAT on PI4P tubes; class with 20-25 nm membrane separation; VAP-A and N-PH-FFAT averaged separately
[3] = molecular target: the molecule itself; experiment: SEC; analytical gel filtration, Superdex 75, 100 ul of 10 uM protein, 25 mM Tris pH 7.5, 120 mM NaCl, 1 mM DTT; Stokes radius against MW of standards

Molecule: VAP-A MSP (from UniProt Q9P0L0)
Kd (OSBP FFAT (Homo sapiens)): 2000 nM

binding result (N-PH-FFAT): binds
B1: VAP-A (natural protein, human, UniProt Q9P0L0 8-249, looked up)
chain: MAKHEQILVLDPPTDLKFKGPFTDVVTTNLKLRNPSDRKVCFKVKTTAPRRYCVRPNSGIIDPGSTVTVSVMLQPFDYDPNEKSKHKFMVQTIFAPPNTSDMEAVWKEAKPDELMDSKLRCVFEMPNENDKLNDMEPSKAVPLNASKQDGPMPKPHSVSLNDTETRKLMEECKRLQGEMMKLSEENRHLRDEGLRLRKVAHSDKPGSTSTASFRDNVTSPLPSLLVVIAAIFIGFFLGKFIL
notes: VAP-A, human, Q9P0L0, fragment 8-249 with its C-terminal transmembrane helix; The methods give the fragment 8-249 and the results say full-length; Both tags were removed with TEV protease before size exclusion chromatography; also called full-length VAP-A; human VAP-A; source: E. coli C41 (DE3), membranes solubilised in DDM, purified (Strep-Tactin, TEV, Superdex 200); reconstituted in egg …
stoichiometry N [1]: 2

Molecule: B2
stoichiometry N [2]: 2

B3: OSBP CC[G324C] (C224A/C276A/G324C) (domain or fragment, UniProt P22059 199-324, looked up)
chain: VSQTDKTELQNTLRTLSSKVEDLSTANDLIAKHGTALQRSLSELESLKLPAESNEKIKQVNERATLFRITSNAMINAARDFLMLAQTHSKKWQKSLQYERDQRIRLEETLEQLAKQHNHLERAFRC
modifications: AF-488, AF-568 or both dyes on the introduced cysteine C324 in the FRET experiments; unlabelled in gel filtration
notes: Cloned via BamH1/Xma1 into pGEX-4T2; source: E. coli Bl21gold, purified (Glutathione-Sepharose, thrombin, MonoS, Superose 12)
binding result [3]: binds

B4: OSBP Central Core (CC), wild type (domain or fragment, UniProt P22059 199-324, looked up)
chain: VSQTDKTELQNTLRTLSSKVEDLSTCNDLIAKHGTALQRSLSELESLKLPAESNEKIKQVNERATLFRITSNAMINACRDFLMLAQTHSKKWQKSLQYERDQRIRLEETLEQLAKQHNHLERAFRG
notes: The methods describe cloning (pGEX-4T2, GST tag, thrombin cleavage) and purification only for the cysteine mutants; also called OSBP CC; source: E. coli, purified
stoichiometry N [3]: 2
